Measurements as given in article PMC6449081.

Legend:
[1] = target: Dec E73R with a C-terminal histidine tag (phage L); test: native gel or EMSA; native gel of purified Dec variants in solution
[2] = target: Dec K30D with a C-terminal histidine tag (phage L); test: as above
[3] = target: Dec Y31A with a C-terminal histidine tag (phage L); test: as above
[4] = target: Dec Y49E with a C-terminal histidine tag (phage L); test: as above
[5] = target: Dec Y71A with a C-terminal histidine tag (phage L); test: as above
[6] = target: phage L decoration protein Dec, capsid-bound trimer in native phage L virions (phage L); test: cryo-EM structure; native phage L virions, vitrified; icosahedral reconstruction, 4.2 Å; NMR OB-fold of Dec and a coat homology model fitted into the map
[7] = target: phage P22 coat protein E81R:E323R, in P22 phage particles (phage P22) (UniProt P26747); test: co-sedimentation; purified Dec added to purified P22 phages with WT or variant coat protein; free Dec separated by cesium chloride density gradient sedimentation; phage bands TCA-precipitated, SDS-PAGE, Coomassie bands of coat and Dec quantitated and normalized to the ratio in native P22 particles bound with Dec

Dec E73R with a C-terminal histidine tag (natural protein)
stoichiometry N [1]: 3

Dec K30D with a C-terminal histidine tag (natural protein)
stoichiometry N [2]: 3

Dec Y31A with a C-terminal histidine tag (natural protein)
stoichiometry N [3]: 3

Dec Y49E with a C-terminal histidine tag (natural protein)
stoichiometry N [4]: 3

Dec Y71A with a C-terminal histidine tag (natural protein)
stoichiometry N [5]: 3

phage L decoration protein Dec, capsid-bound trimer in native phage L virions (natural protein)
stoichiometry N [6]: 3

recombinant wild type Dec with a C-terminal histidine tag (natural protein)
Dec binding, normalized to WT (%) [7]: < 20%
